Measured values: US20240417475A1 (AFFIMED, published 2024)
One block for each binder: values may come before it.

Key:
[1] = target: T1, human CD16A (158F) expressed on CHO cells (cAg_34) (human, UniProt P08637 17-254); experiment: flow cytometry on huCD16A-transfected CHO cells, on ice, APC goat anti-human IgG detection
T1 construct: also called huCD16A-transfected CHO cells
Protocol: (§1) To analyze binding of different antibody constructs to CHO cells transfected with human CD16A (cAg_34), relative to CD16 expression by flow cytometry, 1-2×10⁵ were resuspended in 100 μL FACS buffer (PBS (Invitrogen, cat.: 14190-169) containing 2% heat-inactivated FCS (Invitrogen, cat.: 10270-106), and 0.1% sodium azide (Roth, Karlsruhe, Germany, cat.: A1430.0100)) in round-bottom 96-well microtiter plates. After washing in FACS buffer, cells were incubated in 50 μL FACS buffer without antibodies or with titrated antibodies starting at a concentration of 100 μg/mL followed by ten 5-fold serial dilutions for 30 min on ice in the dark. […] After washing, binding was measured by flow cytometry and mean fluorescence intensities (MFI) of cell samples were calculated and corrected for background staining using control cells stained with secondary antibodies only.

[2] = target: T1, human CD16A (158F) expressed on CHO …; experiment: flow cytometry on huCD16A-transfected CHO cells (cAg_34), one-site fit of MFI, experiment 3
Protocol: as §1
(§2) Equilibrium dissociation constants (KD) of antibody binding were calculated by plotting MFI values and fitting a non-linear regression model for one-site binding to hyperbolic dose-response curves using GraphPad Prism.

[3] = target: T1, human CD16A (158F) expressed on CHO …; experiment: flow cytometry on huCD16A-transfected CHO cells (cAg_34), one-site fit of MFI, experiment 1
Protocol: as §1, §2

[4] = target: T1, human CD16A (158F) expressed on CHO …; experiment: flow cytometry on huCD16A-transfected CHO cells (cAg_34), one-site fit of MFI, experiment 2
Protocol: as §1, §2

[5] = target: T1, human CD16A (158F) expressed on CHO …; experiment: flow cytometry on huCD16A-transfected CHO cells (cAg_34), one-site fit of MFI, mean of 3
Protocol: as §1, §2

[6] = target: T2, human FOLR1 endogenously expressed on tumor cell lines (human, UniProt P15328 25-234); experiment: flow cytometry on IGROV-1 cells, 37 C, one-site fit of MFI, mean
T2 construct: whole, on cells; also called FOLR1-positive tumor cell lines; FOLR1+ target cells
T2 sequence (P15328 25-234): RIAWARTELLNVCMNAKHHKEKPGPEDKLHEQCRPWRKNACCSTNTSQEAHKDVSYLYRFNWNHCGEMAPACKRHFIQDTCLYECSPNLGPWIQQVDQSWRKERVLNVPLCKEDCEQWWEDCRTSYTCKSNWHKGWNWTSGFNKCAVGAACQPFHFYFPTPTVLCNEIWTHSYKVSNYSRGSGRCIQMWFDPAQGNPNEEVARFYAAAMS
Protocol: (§3) Cells were collected and centrifuged at 400×g, 5 min, 4° C. Cell pellets were resuspended in FACS buffer (PBS (Invitrogen, cat.: 392-0434) containing 2% h.i. FCS (Invitrogen, cat.: 10500-064), and 0.1% sodium azide (Sigma, cat.: S8032)) at 1-5×10⁶ cells/mL. 100 μL/well of the cell suspension were transferred into U-shaped, 96-well micro plates (0.1-0.5×10⁶ cells per well), cells were pelleted at 400×g, 5 min, 4° C., and resuspended in 100 μL/well of serial dilutions of the indicated antibodies in FACS buffer. After 40-50 min incubation at 37° C., cells were washed 3-times with ice-cold FACS buffer. […] After the final incubation step, cells were washed 2-times with ice-cold FACS buffer, and the cell pellet was resuspended in 100 μL FACS buffer. Fluorescence intensities of >1×10⁴ viable cells were analyzed by flow cytometry and the median fluorescence intensity (MFI) was determined for each sample.
(§4) Equilibrium dissociation constants (KD) of antibody binding, mean and standard deviation (SD) were calculated by plotting MFI values and fitting a non-linear regression model for one-site binding to hyperbolic dose-response curves using GraphPad Prism for Windows (v9; GraphPad Software; La Jolla California USA).
(§5) Specific antibody binding capacity (SABC) as a marker for FOLR1 expression level on cells was determined on all tumor cell lines using QIFIKIT.

[7] = target: T2, human FOLR1 endogenously expressed on …; experiment: cell-based or functional assay
[8] = target: T2, human FOLR1 endogenously expressed on …; experiment: flow cytometry on OVCAR-3 cells (FOLR1 medium) at 37 °C, FITC anti-human IgG detection
Protocol: as §3

[9] = target: T3, human CD16A-mFc (158V) (sAg_149) (human, UniProt P08637 17-208); experiment: ELISA, plate coated with human CD16A-mFc (158V) (sAg_149), one-site fit, mean of 3
T3 construct: also called CD16A 158V (sAg_149); recombinant human CD16A 158V
T3 sequence (P08637 17-208 F176V limits assumed): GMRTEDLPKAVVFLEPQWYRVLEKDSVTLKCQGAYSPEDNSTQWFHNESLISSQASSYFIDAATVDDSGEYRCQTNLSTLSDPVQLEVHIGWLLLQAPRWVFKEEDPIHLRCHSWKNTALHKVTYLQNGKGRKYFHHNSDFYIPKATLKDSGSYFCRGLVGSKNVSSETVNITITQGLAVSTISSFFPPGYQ
Protocol: (§6) After incubation with the secondary antibodies, the plate was washed five times with PBST and one time with PBS. Chromogenic substrate (1:1 mixture of TMB:TMBB, SeraCare cat: 5120-0048 and 5120-0037) was added and the reaction was stopped by addition of an equal volume of 0.5 M H₂SO₄ after sufficient color development. Absorbance at 450 nm was measured in an ELISA plate reader (Sunrise Absorbance Reader 901000833, Schoeller Instruments). The absorbance values were corrected by subtracting the background of the respective secondary antibody and fitted with a one site binding function (hyperbola) using GraphPad Prism (version 9.3.1. GraphPad Software, La Jolla California USA). KD is the concentration of ligand required to reach half-maximal binding.

[10] = target: T2, human FOLR1 endogenously expressed on …; experiment: flow cytometry on IGROV-1 cells (FOLR1 high) at 37 °C, FITC anti-human IgG detection
Protocol: as §3

[11] = target: T2, human FOLR1 endogenously expressed on …; experiment: flow cytometry on HCC-827 cells, 37 C, one-site fit of MFI, mean
Protocol: as §3, §4, §5

[12] = target: T4, human FOLR1-mFc_Avi-tag (sAg_303) (human, UniProt P15328 25-234, limits assumed); experiment: ELISA, plate coated with human FOLR1-mFc_Avi-tag (sAg_303), one-site fit, mean of 3
T4 construct: also called human FOLR1 (sAg_303); recombinant human FOLR1
T4 sequence (P15328 25-234 limits assumed): as the sequence (P15328 25-234) above
Protocol: as §6, with “96 well ELISA plates (F96 Maxisorp Immuno Plate, Nunc, cat: 442404) were coated overnight at 4° C. with 50 μL/well of 10 μg/mL human FOLR1-mFc_Avi-tag in DPBS. After overnight incubation plates were washed three times with PBST and blocked with Candor Blocking solution for 2 h at RT under mild agitation. […] After” for “After”

[13] = target: T2, human FOLR1 endogenously expressed on …; experiment: flow cytometry on OVCAR-3 cells, 37 C, one-site fit of MFI, mean
Protocol: as §3, §4, §5

[14] = target: T2, human FOLR1 endogenously expressed on …; experiment: flow cytometry on NCI-H2110 cells, 37 C, one-site fit of MFI, mean
Protocol: as §3, §4, §5

[15] = target: T4, human FOLR1-mFc_Avi-tag (sAg_303); experiment: ELISA, plate coated with human FOLR1-mFc_Avi-tag, anti-human Fab-HRP detection, A450
Protocol: as §6, with “96 well ELISA plates (F96 Maxisorp Immuno Plate, Nunc, cat: 442404) were coated overnight at 4° C. with 50 μL/well of 10 μg/mL human FOLR1-mFc_Avi-tag in DPBS. After overnight incubation plates were washed three times with PBST and blocked with Candor Blocking solution for 2 h at RT under mild agitation. […] After” for “After”

T1 sequence (P08637 17-254 limits assumed): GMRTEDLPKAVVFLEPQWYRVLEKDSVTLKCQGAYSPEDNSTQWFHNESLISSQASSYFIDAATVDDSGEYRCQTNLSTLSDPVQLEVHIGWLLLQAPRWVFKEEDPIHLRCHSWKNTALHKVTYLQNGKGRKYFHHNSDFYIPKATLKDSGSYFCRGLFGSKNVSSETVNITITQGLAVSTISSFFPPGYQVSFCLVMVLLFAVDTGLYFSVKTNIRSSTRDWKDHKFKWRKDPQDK

EC50 (read off the curve) [1]: ~20 nM
Kd [2]: 37.9 nM
Kd [3]: 56.2 nM
Kd [4]: 18.7 nM
Kd [5]: 37.6 nM
B1: scFv-IgAb_148 (CD123-1×CD16a2) (bispecific antibody)
chain 1: QVQLQQSGAEVKKPGASVKVSCKASGYTFTDYYMKWVKQSHGKSLEWMGDIIPSNGATFYNQKFKGKATLTVDRSTSTAYMELSSLRSEDTAVYYCARSHLLRASWFAYWGQGTLVTVSSASTKGPSVFPLAPSSKSTSGGTAALGCLVKDYFPEPVTVSWNSGALTSGVHTFPAVLQSSGLYSLSSVVTVPSSSLGTQTYICNVNHKPSNTKVDKKVEPKSCDKTHTCPPCPAPEFEGGPSVFLFPPKPKDTLMISRTPEVTCVVVAVSHEDPEVKFNWYVDGVEVHNAKTKPREEQYNSTYRVVSVLTVLHQDWLNGKEYKCKVSNKALPAPIEKTISKAKGQPREPQVYTLPPSREEMTKNQVSLTCLVKGFYPSDIAVEWESNGQPENNYKTTPPVLDSDGSFFLYSKLTVDKSRWQQGNVFSCSVMHEALHNHYTQKSLSLSPGGGGGSGGGGSGGGGSGGGGSGGGGSGGGGSSYVLTQPSSVSVAPGQTATISCGGHNIGSKNVHWYQQRPGQSPVLVIYQDNKRPSGIPERFSGSNSGNTATLTISGTQAMDEADYYCQVWDNYSVLFGGGTKLTVLGGSGGSGGSGGSGGSGGSGGSQVQLVQSGAEVKKPGESLKVSCKASGYTFTSYYMHWVRQAPGQGLEWMGAIEPMYGSTSYAQKFQGRVTMTRDTSTSTVYMELSSLRSEDTAVYYCARGSAYYYDFADYWGQGTLVTVSS
chain 2: not shown
notes: also called CD123×CD16A scFv-IgAb_148; CD123/CD16A scFv-IgAb_148

Kd [6]: 4.4 nM
EC50 [nM] of ADCP, HCC-78 cells [7]: 0.81 nM
EC50 [nM] of ADCP, HeLa cells [7]: 0.78 nM
Phagocytosis [%], 4 h ADCP, DK-MG cells [7]: 0%
Phagocytosis [%], 4 h ADCP, HCC-78 cells [7]: 10.7%
Phagocytosis [%], 4 h ADCP, HeLa cells [7]: 16.4%
EC50 (read off the curve) [8]: ~2 nM
Kd [9]: 3.53 nM
EC50 (read off the curve) [10]: ~4 nM
Kd [11]: 3.2 nM
Kd [12]: 0.05 nM
Kd [13]: 1.8 nM
Kd [14]: 2.3 nM
EC50 (read off the curve) [15]: ~0.05 nM
B2: anti-FOLR1 IgG1 IgAb_335 (antibody)
chain 1: not shown
chain 2: DIQLTQSPSSLSASVGDRVTITCSVSSSISSNNLHWYQQKPGKAPKPWIYGTSNLASGVPSRFSGSGSGTDYTFTISSLQPEDIATYYCQQWSSYPYMYTFGQGTKVEIKRTVAAPSVFIFPPSDEQLKSGTASVVCLLNNFYPREAKVQWKVDNALQSGNSQESVTEQDSKDSTYSLSSTLTLSKADYEKHKVYACEVTHQGLSSPVTKSFNRGEC
notes: IgG1 with farletuzumab-derived Fv domains and wild-type Fc; also called IgAb_355; anti-FOLR1 IgG1 antibody comprising wild-type Fc
